Data taken from US6252057.

Target: PP1C in 3T3-L1 adipocyte lysates (mouse (endogenous in 3T3-L1 adipocytes))
Experiment: GST-PTG added to 3T3-L1 adipocyte lysates, fractionation, PP1 activity in the glycogen pellet

fold increase in the PP1 activity sedimenting with the glycogen pellet: 8 fold
Substance: GST-PTG fusion protein
